Measured values from patent publication US20060026702A1, “Phosphoinositide 3-kinase mediated inhibition of GPCRs” (DUKE UNIVERSITY, priority 2002, published 2006).

Target: endogenous βARK1 of HEK 293 cells (UniProt P25098)
Assay: cell-based or functional assay

Chain of endogenous βARK1 of HEK 293 cells (P25098 whole entry): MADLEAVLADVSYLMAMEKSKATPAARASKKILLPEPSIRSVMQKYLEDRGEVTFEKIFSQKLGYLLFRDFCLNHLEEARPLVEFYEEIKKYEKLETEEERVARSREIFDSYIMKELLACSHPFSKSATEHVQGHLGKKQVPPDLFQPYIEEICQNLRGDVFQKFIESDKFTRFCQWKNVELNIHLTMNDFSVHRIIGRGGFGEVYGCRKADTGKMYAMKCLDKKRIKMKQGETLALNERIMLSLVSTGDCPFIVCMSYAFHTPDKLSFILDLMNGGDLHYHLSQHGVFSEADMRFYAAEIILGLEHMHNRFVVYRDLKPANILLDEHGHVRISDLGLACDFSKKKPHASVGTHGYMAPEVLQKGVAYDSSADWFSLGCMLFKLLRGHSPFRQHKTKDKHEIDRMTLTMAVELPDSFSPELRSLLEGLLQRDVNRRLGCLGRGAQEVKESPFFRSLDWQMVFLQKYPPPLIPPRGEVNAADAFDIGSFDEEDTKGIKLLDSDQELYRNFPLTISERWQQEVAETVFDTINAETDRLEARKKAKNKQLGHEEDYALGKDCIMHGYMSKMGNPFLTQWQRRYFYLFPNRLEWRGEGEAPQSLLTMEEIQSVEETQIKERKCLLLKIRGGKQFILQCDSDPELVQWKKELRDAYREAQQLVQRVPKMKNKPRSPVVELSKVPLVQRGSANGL

Q: “endogenous PI3K of HEK 293 cells (enzyme)” was tested. Which rate of agonist-dependent β2AR sequestration (125I-Cyanopindolol binding) with HEAT protein overexpressed did it give?
A: > 60%
